# Measured values reported in US20140121131A1 (AFFINITY BIOSCIENCES, published 2014).
# B1: αGFP::I27::gpL fusion protein (VHH)
# chain: MGDGMQVQLVESGGALVQPGGSLRLSCAASGFPVNRYSMRWYRQAPGKEREWVAGMSSAGDRSSYEDSVKGRFTISRDDARNTVYLQMNSLKPEDTAVYYSNVNVGFEYWGQGTQVTVSSNSSSQTSLIEVEKPLYGVEVFVGETAHFEIELSEPDVHGQWKLKGQPLTASPDCEIIEDGKKHILILHNCQLGMTGEVSFQAANAKSAANLKVKELNSSSDYKDDDDKGNGTLIIPRKEAPVSGEGTVVIPQPAGDEPVIKNTFFFPDIDPKRVRERMRLEQTVAPARLREAIKSGMAETNAELYEYREQKIAAGFTRLADVPADDIDGESIKVFYYERAVCAMATASLYERYRGVDASAKGDKKADSIDSTIDELWRDMRWAVARIQGKPRCIVSQI
# notes: also called Hy5 + αGFP:I27:gpL; gpL capsid fusion protein
# Key:
# [1] = biological target: T1, biotinylated His6-GFP (UniProt P42212 1-238 = GFP); assay: phage capture on streptavidin Dynal beads labelled with biotinylated His6-GFP; fusion protein not induced; reference is Hy5 phage with wild-type gpL
# T1 construct: Held on streptavidin magnetic particles or Dynal beads; also called biotinylated eGFP; Biotin-labeled eGFP; not shown: His6 tag
# [2] = biological target: T1, biotinylated His6-GFP; assay: phage capture on streptavidin Dynal beads labelled with biotinylated His6-GFP; fusion protein induced with arabinose; reference is Hy5 phage with wild-type gpL
binder,measurement,setting,value
B1,Enrichment (fold over Hy5),[1],6.5 fold over Hy5
same,Enrichment (fold over Hy5),[2],82 fold over Hy5
